Experiments:
[1] = biological target: T1, Ac-YVAD-AMC (model substrate, from Enzo, Inc.)
T1 chain: YVAD

[2] = biological target: alpha-synuclein, wild-type full-length human (140 amino acids)

B1: caspase-1 (ICE; interleukin-1-beta converting enzyme), purified, activated (protein)
chain: NPAMPTSSGSEGNVKLCSLEEAQRIWKQKSAEIYPIMDKSSRTRLALIICNEEFDSIPRRTGAEVDITGMTMLLQNLGYSVDVKKNLTASDMTTELEAFAHRPEHKTSDSTFLVFMSHGIREGICGKKHSEQVPDILQLNAIFNMLNTKNCPSLKDKPKVIIIQACRGDSPGVVWFKDSVGVSGNLSLPTTEEFEDDAIKKAHIEKDFIAFCSSTPDNVSWRHPTMGSVFIGRLIEHMQEYACSCDVEEIFRKVRFSFEQPDGRAQMPTTERVTLTRCFYLFPGH
[1]
  activity against a model substrate: 110 µM/min/mg
[2]
  Western blot of ICE digested alpha-synuclein with increasing amounts of ICE (2 to 12 µg): Appearance of a smaller fragment of synuclein below 17 kD with intensity increasing with amount of ICE
  cleavage of alpha-synuclein in vitro (SDS-PAGE and western blot with anti-synuclein antibody): Purified, activated caspase-1 does indeed cleave alpha-synuclein

From patent US20160143985
